# Test: soluble on expression in E. coli; label from the status in PepcDB or PDB records
row,Sequence,soluble on expression in E. coli
1,MGAVSAFSWASSGRLHALEVFVMKIPKTYDEIMEHFGGLIDEVTAELLESYAKGETVRVSEALAKSGRVAVEGVVLRVFPVRHFSKNGRSGKVGSVVIQDDCTVRVNFWNEAAEIIEAGDIVEGARIKVRGYARGEEIHVNSLSEVEVFVDFVNISELDEKVGERVNVKGFVSGLGEPEKANEIYISDETGRVKVLLENESLYYAVDIGSYVEIYNALAGEDGIYVDRNSRFSVGELEHHHHHH,not soluble
2,MGCLSYMVLSGDEALVVDPLRFIDVYEQVAQQEGVTITHIVDSHLHADHLSGGKALAERTGAAYYLMKSEGAVFDFEPLEQHETIDFENVHLEVLAVKTPGHTPGSVSFFVNGKWLFSGDTIFVGGLGRPDLGGKVAEWAEDLYHTVYEKVAAMADDVIVLPAHYANLDEEINAEGYVGDTLGRIRARNEMMQNKAKDEFIDLVIQGLEHHHHHH,not soluble
3,MGCVPRIEFGCSSQSLTLSWNLRAWNLCRLNTISHFQKLPYPLVASTRKHYKNSLLLKRFLVGVGTEESSLSEDLLDESLSRPLTSDELKSLLIDTERSKLVKKLSEANQQNRFLKRQEHEITNIKTELALMELEVQALVKLAEEIANLGIPQGSRKISGKYIQSHLLSRLDAVQKKMKEQIKGVEAAQSKEVHVFWIGMAESVQVMGSFDGWSQREDLSPEYSALFTKFSTTLFLRPGRYEMKFLVDGEWQISPEFPTSGEGLMENNVLVVE,soluble
4,MGCYHPLSGTDGTLMRHTLPIAPQFYVTAPQPCPYLAGRMERKLFTALQGEGAERLNNALSQQGFRRSQNVLYRPSCADCAACLSARIDVSAFRASRSQKRAMRRNAHLTRRATSPWATDEQYELFRRYLDSRHADGGMADMDVFEFAAMIEETPIRSRVIEYAHRDTRALIGVSLTDVLDDGLSMVYSFYDPDLHRDSLGTHMILDHIAIAREAGLPYVYLGYWVPGSPKMGYKSRFSGLEIYLGGRWQAMTDPEAHDAIRHPLSTDPIAEQVANIQLPDRWPTGDLEHHHHHH,not soluble
5,MGDEVGRGHFGYTCAAKIKKGARKGDAVAVKVIPKAKMTTSIAIEDVRREVKILKALAGHKNLVQFYDAYEDNDNVYIVMELCEGGELLDRILSRGGKYSEDDAKAVLVQILNVVSFCHIQGVVHRDLKPENFLFTSKDENSQLKAIDFGLSDFVKPDERLNDIVGSAYYVAPEVLHRCYSTEADVWSIGVIAYILLCGSRPFWARTESGIFRSVLKADPSYNEAPWPSLTLEAMDFVKRLLCKDPRRRMTAAQALSHPWIRNYNDIKLPLDILIFRLIKAYIRSSSLRKAALRALSKTLTVDELFYLKGQFSLLEPDRNGCITLDNIRMALTREATYAMKESRVQEILVSLSALQYRRMDFQEFCAAAVSVHQLEALDRWEQHARSAYDFFEKDGNRAIVIDELASELGLSPSVPLHVVLQDWIRHTDGKLSFLGFVKLLHGMSSRSLSKMR,not soluble
6,MGDILMHYVRKAHEHEVNEVVKYPHTITNTELEEILVSGEECTVLDVREAAEFAFGHIPSATSMPLGELESLVLDKTKQIYVVCRTGNRSDVACQMLKEKGYTNVKNVIPGMIEWQGNIENLEHHHHHH,not soluble
7,MGDSEIYVSLDIGTASVKVIIAEMADDRLNIIGVGNVESSGIKKGIIIDIDKTVESIKKAIEQAERMVGVEISQVIVGVVSSQVHLEACRGIVAVGSENREITDEDVWNVMDAAQVVPLSPEREIINTIPDQFVVDGLTGITDPRGMIGVRLEMEGTLITGSKTILHNTLRCVERAGLEISDIALQPLAEASISLSEDDKEFGTALVNIGAGTTTVSVFEQGRLTYTGVIPVGGDNITKDLSLGLNTSTANADRVKLEHGYAFYDDASPDEVFAIDVIGSDQKQHFTQVEVADIIEARMEEIFQLVVEELNRVGKTHLPGGYVLTGGSMAIPGAIDLAGKTLAAHVRLAIPDYIGVREPSFTTAVGLIKYAYQMAELEGRDVSSTASEPRYDDEAPKQPKQKPKKSDDEKVSTKMKNFFGAFFE,not soluble
8,MGDSFYIRTHFELEPSPPSGLGFTRGDVFHVLDTLHPGPGQSHARGGHWLAVRMGRDLREQERGIIPNQSRAEQLASLEAAQRAVGVGPGSSAGSNARAEFWRLRGLRRGAKKTTQRSREDLSALTRQGRYPPYERVVLREASFKRPVVILGPVADIAMQKLTAEMPDQFEIAETVSRTDSPSKIIKLDTVRVIAEKDKHALLDVTPSAIERLNYVQYYPIVVFFIPESRPALKALRQWLAPASRRSTRRLYAQAQKLRKHSSHLFTATIPLNGTSDTWYQELKAIIREQQTRPIWTAEDQLHHHHHH,soluble
9,MGEKLLMKGNEAIAEAALRAGCRHYFGYPITPQTEIAHYLAKKMPEVGGTFIQAESEVAAINMVYGAASAGARVLTSSSSPGISLKQEGLSYLAGAELPAVVVNIVRCGPGLGGILPAQGDYFQAVKGGGHGDYKMVVLAPSSVQELYELTVEAFNIADRYRIVSMIMGDGILGQMMEAVEFKDVENIEKIDKPWATTGTQMKREHNTITSIYIQPEVLEKHNQKLQAKYRLIEERETRVESYNCENADIIVTAFGTVARIVKNVIKMAEKEGIKVGLIRPITLWPFPTKEYEKYADVPKAFLTVELNAGQMVEDVRLAVNGKKPVYFHGRMGGMIPTQKEILDKIKEILNN,not soluble
10,MGELIYGEVKKQTKDGFIIDLGDNAEAYLAREEMIAKEILRPKQRMNAILYSVNREGRGAQLLLSRALEHHHHHH,not soluble
11,MGELTDALLGKGALKTRFGSLLGQGDWGGVRVSQVEVRWVIFCLLHWLHVNLPVTEYLALDVLFPLAIVQKHSIL,not soluble
12,MGESGLFDTPDQKVGLTGRPLREFPEPEPLHKHGPAKIISMCNQKGGVGKTTSTINLGACLAEAGRKVLLVDLDPQGALSAGLNIPHEELEITVYNLLVDRHTSIHQAIHHTSVDGLDLVPANIDLSAAEIQLVNEVGREQTLARALRPVMRDYDFIILDCQPSLGLLTVNALTCSHGVIIPMECEYFSLRGLALLTDTVEKVRDRLNFDLEIVGILVTMFDRRTTHAREVMSRVVEVFEDRVFDTVITRTVRFPETSVAGEPITTWAPSSQGAQQYRQLAREVIERTA,not soluble
13,MGEYYHATVNGVVEYGAFVDLSEHVSGLIHESTYSGDPDLAVDDDVIVHLSAVRDNGDLSFEFVDPEEYRTEQRSLEHHHHHH,not soluble
14,MGFPIPDPYVWDPSFRTFYSIIDDEHKTLFNGIFHLAIDDNADNLGELRRCTGKHFLNEQVLMQASQYQFYDEHKKEHETFIHALDNWKGDVKWAKSWYVNHIKTIDFKYKGKI,soluble
15,MGFTLKSLEFLQGVEPFRIDENHENEGASEEEEVLISAETDAGMSLMLEWKMRLSEDSDQCTTCNCPVDFGDRAVLLEHYQSLFHRTNTLRKARNMTVYTEEDFEGIENSENDLTSSQTTIGLESDDEEFDALLLPANRSFFIKNGSVFSVPRNILHVGERDVSSVTFLRPFDCAIFLWNGGHFAAAMFENDKMTVQKSFHRYVARAKQGGVQSQHDSGGKGAAKSAGAQLRRYNEQKMKEEIQSIMSSWKSRLQKTPLLFIRCAAYHRNIFFEADAGIETRDDRIRTIPFETKRPNIDEISDCWQRLQQVSEHGAESDFRAEMLEVREKRKKLARKVAGKKRKDGGMQMICEWSDDDENEDISKEKKTHHIKVRTIKKPEETVVQWPRLDDEWRQKTYNYVRQDSVEALKEHLASLNEDVTSEANDYLRNAKIPPNRSTFLHVSAANDARKCLKYFLEEVNCDSSTKDGAGLPPYSSSANSDVKSIFIDYRVKNETAGNWARTHIPEPKKKVELTEEQEREQAERKKEKKARQKEKEKLKKEIAKRDVEEMEERQKYVNMSEREKRALAVDRRLAGLPPILRCHQCGVQLPPTPFQYSHYNFCSTSCVAEHRKANPQ,not soluble
16,MGFYLTSRIMKNIKSQGNGEQPAISRRHFIQASSALIALPFVSSPATAQARAVTATENRPAEKVVQTCSTFDCGGKCDIRAHVSDGIVTRISTRPDNALDAQMPVMRACVRGRAYRKFVYHPDRLKYPMKRVGKRGEGKFERISWDEATTLIADNLKSITEKYGPASRYVHVGTAVSGGTFSGDKMARRLLNLTGGYLESYHSVSMGNTAAATPYTYGIAASGSSLDTLLDTKLVILWGHNPTETIFGHTNYFLQKMKQNGTRFIVVDPRYSDTVSSLADQWIPLLPTTDNALMDAMMYVIISENLHDRAFIARYAIGFDEDSMPEGVPANESLVAYLTGAKDGVVKSPEWAEKITHVPAQTIRQLARDYANTKPAALIQGWGPQRHNCGERTARGSTLLATITGNVGIKGGWAAGYGGCANRKFAAGPEMPDNPVKAKISVMNWVQAADDASKVTPDMGLKDADKLDSNIRILFSLAGNYLANQNPDLHQAVRVLEDESKIQFIVASDLFMTPSAKYADLLLPETSFMERWNIGETWGTASYLILSEKLIEPEFERRSDYDWLREVAAKLGIENEFSQGRDEKAWIEHIWEQTRLAMPDENLPDFATLQKTRQHLFKSAPFIAFEDNIRDPENHPFPTPSGKIEIFSKRLYDMQHPEIPALSHYVPAHEGPEDALAKDFPLQLITWKGKNRANSTQYANPWLIEVQQQTLWINPQDAQKRGITHGDMVRIHNSRGICEIPAEVTPRIIPGVVAMQAGAWWQPDENGVDKGGCANVLSSARITALAKGNSHQTMLVEVAKA,not soluble
17,MGGAVEVSATINNVGNYNAEEVVQLYIRDIVGNVTRPIKELKGFQRITLGKGESMVVTFKLHTDELAFYNQQMEYKPEAGLFHVWIGGDSSTTLKTEFEVTDLEHHHHHH,not soluble
18,MGGDSKGTYCGAPILGPGSAPKLSTKTKFWRSSTTPLPPGTYEPAYLGGKDPRVKGGPSLQQVMRDQLKPFTEPRGKPPKPSVLEAAKKTIINVLEQTIDPPEKWSFTQACASLDKTTSSGHPHHMRKNDCWNGESFTGKLADQASKANLMFEGGKNMTPVYTGALKDELVKTDKIYGKIKKRLLWGSDLATMIRCARAFGGLMDELKAHCVTLPIRVGMNMNEDGPIIFERHSRYKYHYDADYSRWDSTQQRAVLAAALEIMVKFSSEPHLAQVVAEDLLSPSVVDVGDFKISINEGLPSGVPCTSQWNSIAHWLLTLCALSEVTNLSPDIIQANSLFSFYGDDEIVSTDIKLDPEKLTAKLKEYGLKPTRPDKTEGPLVISEDLNGLTFLRRTVTRDPAGWFGKLEQSSILRQMYWTRGPNHEDPSETMIPHSQRPIQLMSLLGEAALHGPAFYSKISKLVIAELKEGGMDFYVPRQEPMFRWMRFSDLSTWEGDRNLAPSFVNEDGVEVDKLAAALEHHHHHH,soluble
